Measurements: the supplement of paper PMC10567573

B1: FAM164A (parent)
chain: YDPDYIQCPYCQRRFNENAADRHI

Variants of: B1
Assay: protein stability index of a GFP-peptide fusion (GPS, HEK-293T) (PSI 1-6); higher = more stable
Conditions: c terminus: a fixed tail appended
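Further: lentivirally expressed fusions sorted by FACS into six bins by GFP to DsRed ratio, PSI derived from sequencing read proportions per bin multiplied by bin number.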

Protein stability index of substitutions, site by site:
R13: T 2.41; M 4.03; C 3.17; E 3.07; A 3.76; F 3.18; N 3.68; V 2.23; H 3.51; S 3.62; G 4.23; P 2.24; Q 3.75; Y 2.7; D 3.16
P9: V 2.44; R 2.58; Y 2.07; E 3.11; A 2.38; T 2.55; W 2.52; H 2.83; D 3.09; C 2.59; L 2.09; N 2.75; I 2.29; F 2.18; Q 3.14; S 2.95; M 2.39; K 2.58; G 2.54
N18: Q 4.76; M 3.48; D 4.5; L 3.93; V 3.86; R 3.71; W 3.4; T 4.11; K 4.11; I 3.36; E 4.26; A 4.22; Y 3.72; F 3.22; G 3.92; S 4.28; C 4.15; P 3.91; H 4.37
A19: C 4.42; K 4; E 4.61; W 3.66; D 4.47; V 3.82; G 4.41; M 3.88; N 4.37; T 4.51; F 4.24; Q 4.37; L 4.03; R 4.11; I 4.02; H 4.12; Y 3.58; P 4.03; S 4.59
E17: A 5.13; T 4.91; D 4.37; N 5.01; G 4.5; K 5.07; W 4.77; M 5.01; R 4.89; V 5.04; Q 4.94; I 5.23; Y 4.68; H 4.97; F 5.14; S 4.69; C 5.13; P 5.37; L 5.16
R14: E 3.88; G 2.81; S 4.11; D 3.08; L 4.28; V 4.67; A 4.16; N 2.68; T 4.45; Y 4.52; I 4.64; C 4.41; M 3.77; F 5.24; W 5.12; Q 4.24; P 3.9; K 4.01; H 4
Q12: F 4.24; N 4.05; L 4.9; G 4.74; E 4.04; T 2.4; M 3.85; R 4.27; D 3.26; H 4.93; P 2.64; Y 4.3; I 2.52; C 3.84; K 5.16; V 2.48; W 3.61; A 4.08; S 3.52
D21: S 4.57; Y 4.03; P 3.92; H 3.93; W 3.51; V 4.25; T 4.21; G 3.9; R 4.07; Q 4.71; M 3.94; C 4.8; A 4.33; K 4.46; I 4.63; E 4.42; F 3.72; L 4.55; N 4.72
H23: R 3.96; M 4.4; N 4.15; P 3.86; I 4.21; L 3.9; W 3.63; Y 3.83; D 4.81; F 3.3; C 4.54; K 4.11; E 5.08; Q 4.22; A 4.4; S 3.67; G 4.05; V 4.25; T 3.65
